In PMC10557622 (bioRxiv, 2023) one finds Kd data, which are given here for two molecules.

Assay [1] concerns the target 6xHis-MBP-CENP-C 1-600-SpyCatcher (UniProt Q03188 1-600). Description: BLI.
For another assay, the target named is CENP-A/H4 (UniProt P49450;P62805). Put plainly: BLI.

Sequence of 6xHis-MBP-CENP-C 1-600-SpyCatcher (Q03188 1-600): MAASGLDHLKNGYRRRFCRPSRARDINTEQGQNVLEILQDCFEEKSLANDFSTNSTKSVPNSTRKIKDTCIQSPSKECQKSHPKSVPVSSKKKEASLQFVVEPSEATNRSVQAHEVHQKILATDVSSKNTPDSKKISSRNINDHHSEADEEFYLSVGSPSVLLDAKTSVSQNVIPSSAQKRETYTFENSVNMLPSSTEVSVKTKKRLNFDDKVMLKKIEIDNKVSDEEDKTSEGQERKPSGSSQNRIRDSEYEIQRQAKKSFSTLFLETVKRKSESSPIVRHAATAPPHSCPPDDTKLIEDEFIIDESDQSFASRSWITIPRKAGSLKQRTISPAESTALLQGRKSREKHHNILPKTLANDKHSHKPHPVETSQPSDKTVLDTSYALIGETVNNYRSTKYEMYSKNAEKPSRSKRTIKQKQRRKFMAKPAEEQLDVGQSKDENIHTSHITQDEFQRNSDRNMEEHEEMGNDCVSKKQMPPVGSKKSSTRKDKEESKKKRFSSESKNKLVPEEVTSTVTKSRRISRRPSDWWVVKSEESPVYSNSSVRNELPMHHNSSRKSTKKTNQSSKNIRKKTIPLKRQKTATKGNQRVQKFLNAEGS

B1: recombinant Human EMD protein with N-terminal His-tag (natural protein)
chain: MDNYADLSDTELTTLLRRYNIPHGPVVGSTRRLYEKKIFEYETQRRRLSPPSSSAASSYSFSDLNSTRGDADMYDLPKKEDALLYQSKGYNDDYYEESYFTTRTYGEPESAGPSRAVRQSVTSFPDADAFHHQVHDDDLLSSSEEECKDRERPMYGRDSAYQSITHYRPVSASRSSLDLSYYPTSSSTSFMSSSSSSSSWLTRRAIRPENRAPGAGLGQDRQVPLWGQLLLFLVFVIVLFFIYHFMQAEEGNPF
For B1, the Kd in assay [1] amounted to 404 nM; with CENP-A/H4, 137 nM.

B2: purified BANF1 (natural protein)
chain: MTTSQKHRDFVAEPMGEKPVGSLAGIGEVLGKKLEERGFDKAYVVLGQFLVLKKDEDLFREWLKDTCGANAKQSRDCFGCLREWCDAFL
As for B2, binding in the assay with CENP-A/H4 was characterised by a dissociation constant (Kd) of 290 nM. This lies in the sub-micromolar range.
